Results: US20220411501A1 (INTERNATIONAL DRUG DEVELOPMENT BIOTECH, published 2022)
Substitutions are numbered along the chain they refer to. Values belong to the binder of their own block, whether it stands above or below them.

What was measured:
[1] = biological target: T1, CD117 (c-Kit, stem cell factor receptor) on HEL or TF1 human erythroleukemia cells (human, UniProt P10721 26-976); assay: flow cytometry on HEL cells; 1 µl/2.10^5 cells
T1 construct: whole, on cells
Description: (§1) By flow cytometry, the humanized mAb staining was analyzed on HEL CD117 positive cell line. […] No staining was observed on the cell line CEM (CD117 negative, (data not shown).

[2] = biological target: T1, CD117 (c-Kit, stem cell factor …); assay: flow cytometry on HEL cells; 10 µl/2.10^5 cells
Description: as §1

[3] = biological target: T1, CD117 (c-Kit, stem cell factor …); assay: flow cytometry on HEL cells; 0.1 µl/2.10^5 cells
Description: as §1

[4] = biological target: T1, CD117 (c-Kit, stem cell factor …); assay: flow cytometry on HEL cells; 100 µl/2.10^5 cells
Description: as §1

T1 sequence (P10721 26-976): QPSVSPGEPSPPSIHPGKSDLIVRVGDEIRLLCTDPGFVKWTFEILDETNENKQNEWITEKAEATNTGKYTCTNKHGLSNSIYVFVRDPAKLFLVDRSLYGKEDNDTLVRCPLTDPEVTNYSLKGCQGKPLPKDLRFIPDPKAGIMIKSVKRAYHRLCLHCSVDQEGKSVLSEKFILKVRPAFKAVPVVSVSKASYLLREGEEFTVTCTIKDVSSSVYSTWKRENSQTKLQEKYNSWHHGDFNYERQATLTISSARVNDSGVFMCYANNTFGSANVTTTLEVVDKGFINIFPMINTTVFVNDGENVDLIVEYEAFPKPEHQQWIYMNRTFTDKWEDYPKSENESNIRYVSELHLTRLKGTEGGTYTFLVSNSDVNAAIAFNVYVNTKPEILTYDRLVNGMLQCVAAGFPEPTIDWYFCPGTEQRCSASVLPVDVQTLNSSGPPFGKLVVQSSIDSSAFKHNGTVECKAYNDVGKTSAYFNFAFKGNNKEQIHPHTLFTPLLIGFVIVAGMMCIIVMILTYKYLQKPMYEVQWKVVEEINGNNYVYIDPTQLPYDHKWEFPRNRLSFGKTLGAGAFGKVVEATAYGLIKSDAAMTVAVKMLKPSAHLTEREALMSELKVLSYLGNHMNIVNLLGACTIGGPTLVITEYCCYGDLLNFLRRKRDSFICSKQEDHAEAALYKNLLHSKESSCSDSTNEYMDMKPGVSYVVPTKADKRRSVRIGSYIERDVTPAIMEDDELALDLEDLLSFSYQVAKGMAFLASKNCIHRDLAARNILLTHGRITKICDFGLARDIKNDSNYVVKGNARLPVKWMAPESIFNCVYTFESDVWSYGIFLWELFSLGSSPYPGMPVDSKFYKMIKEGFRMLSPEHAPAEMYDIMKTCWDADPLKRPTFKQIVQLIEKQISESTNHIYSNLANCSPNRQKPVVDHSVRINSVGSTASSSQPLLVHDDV

% labelled HEL cells [1]: 67%
MFI [1]: 228
% labelled HEL cells [2]: 70%
MFI [2]: 236
% labelled HEL cells [3]: 59%
MFI [3]: 210
% labelled HEL cells [4]: 73%
MFI [4]: 241
B1: humanized antibody 36-5 Hz121 (antibody, human IgG1, V domains shown)
VH: QVQLVQSGAEVKKPGASVKVSCKASGYTFTSYWMNWVRQAPGQGLEWMGRIDPSDSEIHYNQKFKGRVTMTVDTSTSTAYMELSSLRSEDTAVYYCARDYGSDYYAMDYWGQGTLVTVSS
VL: QIVLTQSPAFQSVTPGEKVTITCSASQSVSYMHWYQQKSGTSPKLLIYSTSNLTSGVPSRFSGSGSGTDYTLTISSLEAEDAATYYCHQWSSYPFGGGTKVEIK
notes: The variable regions were cloned into vector p3U containing the human IgG1 constant region; also called H-36.5Hz30 + L-36.5Hz31

% labelled HEL cells [1]: 66%
MFI [1]: 228
% labelled HEL cells [2]: 70%
MFI [2]: 136
% labelled HEL cells [3]: 64%
MFI [3]: 225
% labelled HEL cells [4]: 74%
MFI [4]: 242
B2: humanized antibody 36-5 Hz114 (antibody, human IgG1, V domains shown)
VH: B1 VH with G66D, R67K, V68A, M70L, T74K
VL: B1 VL
notes: The variable regions were cloned into expression vector p3U containing the human IgG1 constant region; also called H-36.5Hz27 + L-36.5Hz31

% labelled HEL cells [1]: 72%
MFI [1]: 240
% labelled HEL cells [2]: 77%
MFI [2]: 250
% labelled HEL cells [3]: 61%
MFI [3]: 214
% labelled HEL cells [4]: 94%
MFI [4]: 291
B3: humanized antibody 36-5 Hz128 (antibody, human IgG1, V domains shown)
VH: B1 VH with M48I
VL: B1 VL
notes: The variable regions were cloned into vector p3U containing the human IgG1 constant region; also called H-36.5Hz31 + L-36.5Hz31

% labelled HEL cells [1]: 80%
MFI [1]: 259
% labelled HEL cells [2]: 81%
MFI [2]: 262
% labelled HEL cells [3]: 43%
MFI [3]: 259
% labelled HEL cells [4]: 80%
MFI [4]: 251
B4: ch36-05 chimeric monoclonal antibody (antibody, human IgG1, kappa, V domains shown)
VH: QVQLQQSGAELVKPGAPVKLSCKASGYTFTRYWMNWVKQRPGRGLEWIGRIDPSDSEIHYNQNFKDKATLTVDKSSSTAYIQLSSLTSEDSAVYYCARDYGSDYYAMDYWGQGTSVTVSS
VL: QIVLTQSPAIMSASLGEEITLTCSASSSVSYMHWYQQKSGTSPKLLIYSTSNLTSGVPSRFSGSGSGTFYSLTISSVEAEDAADYYCHQWSSYPFGGGTKLEIKR
notes: Murine VH + human IgG1 Fc; murine VL + human Kappa; also called chR036-05; chR036.05
